In paper PMC10791543 (Science signaling, 2023):

What was measured:
Assay in all cases: other fluorescence titration
[1] = target: recombinant RHOA^L57V (human) (UniProt P61586)
[2] = target: recombinant RHOA^WT (human) (UniProt P61586)
[3] = target: recombinant RHOA^WT (human, UniProt P61586 1-193)
[4] = target: recombinant RHOA^L57V (human, UniProt P61586 1-193, L57V)
Sequence of recombinant RHOA^L57V (P61586 whole entry L57V): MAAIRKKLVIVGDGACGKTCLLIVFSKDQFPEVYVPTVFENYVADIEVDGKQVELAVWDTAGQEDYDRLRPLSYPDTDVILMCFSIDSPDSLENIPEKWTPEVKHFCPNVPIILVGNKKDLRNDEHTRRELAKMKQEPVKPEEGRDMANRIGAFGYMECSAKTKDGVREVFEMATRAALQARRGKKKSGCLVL

Sequence of GST-ROCK1-RBD (domain or fragment) (Q13464 947-1015 limits assumed): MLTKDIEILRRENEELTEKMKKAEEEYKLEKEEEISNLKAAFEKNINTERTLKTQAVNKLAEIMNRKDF
Sequence of recombinant RHOA^WT (P61586 whole entry): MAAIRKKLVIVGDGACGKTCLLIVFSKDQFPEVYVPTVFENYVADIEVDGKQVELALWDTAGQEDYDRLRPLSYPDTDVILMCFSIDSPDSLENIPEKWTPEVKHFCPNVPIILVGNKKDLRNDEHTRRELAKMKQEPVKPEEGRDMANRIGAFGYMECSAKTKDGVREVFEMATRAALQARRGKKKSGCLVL
Sequence of recombinant RHOA^WT (human) (P61586 whole entry): as above
Sequence of recombinant RHOA^L57V (human) (P61586 whole entry L57V): as the sequence (P61586 whole entry L57V) above

Row | Kd [1] [nM] | Kd [2] [nM] | Kd [3] [nM] | Kd [4] [nM] | Molecule
1 | 243 | 439 |  |  | GST-ROCK1-RBD (domain or fragment)
2 |  |  | 258 ± 15 | 220 ± 10 | GST-Rhotekin-RBD (domain or fragment, mouse, UniProt Q8C6B2-2 7-89, looked up) ILEDLNMLYIRQMALSLEDTELQRKLDHEIRMRDGACKLLAACSQREQALEATKSLLVCNSRILSYMGELQRRKEAQVLEKTG
